Assay results reported in publication PMC3481213.

B1: BdCAD3 (Brachypodium distachyon) (protein)
chain: MEQGKAALGWAARDASGHLSPYNFSRRVQKDDDVTIKVLFCGICHTDLHIIKNEWGNALYPIVPGHEVVGVVTDVGPGVKNFKAGETVGVGYFLDSCRTCDSCSKGHENYCPTLVLTSNGVDYDGATTQGGFSDVVVVNQDYVVRVPDTLPPDGAAPLLCAGVTVYSPMMQYGLNAPGKHLGVVGLGGLGHMAVKFGKAFGMKVTVISSSLRKREEALDRLGADDFLVSSDAEQMKAAAGAMDGIIDTVSAGHPIVPLLELLRPMGQMVVCGAPSEPLQLPAYAVITGGKRIAGNGVGSVRDCQAMLDFAGEHGITADVEVVKMDYVNTAVERLERNDVRYRFVIDVAGSLQQGGAA
B2: BdCAD5 (Brachypodium distachyon) (protein)
chain: MGSIASEERTVTGWAARDADGHLSPYTYTLRKTGPEDVLVKVLYCGICHTDIHQAKNHLGASKYPMVPGHEVVGEVVEVGGEVSKYSAGDVVGVGVIVGCCRECRPCKASVEQYCNKRIWSYNDVYTDGRPTQGGFSSAMVVDQKFVVRIPAGLAPEQAAPLLCAGVTVYSPLKHFGLMSPGLRGGILGLGGVGHMGVKVAKSMGHHVTVISSSGKKRAEAMDDLGADAYLVSSDADQMAAAADSLDYVIDTVPVKHPLEPYLSLLKMDGKLVLMGVIGEPLSFVSPMVMLGRKSITGSFIGSMEETEEVLKFCVEKGLTSQIEVVKMDYLNEALERLERNDVRYRFVVDVAGSKIEDAA

Columns and labels:
[1] = target: Brachypodium distachyon cinnamyl alcohol dehydrogenase 5 (BdCAD5), recombinant 6xHis-tagged (Brachypodium distachyon); test: SEC
purified protein [2] = substrate: COc1cc(/C=C/C=O)ccc1O; test: purified protein; conditions: co-substrate NADPH
purified protein [3] = substrate: COc1cc(/C=C/CO)ccc1O; test: purified protein; conditions: co-substrate NADP+, 100 mM TRIS-HCl pH 8.8, 23 °C, n = 1
[4] = 100 mM sodium acetate pH 5.35, 23 °C
[5] = 200 mM potassium phosphate pH 6.25, 23 °C

Molecule | percent of peak area at the dimer position [1] [%] | stoichiometry N [1] | Km (purified protein [2]; [4]) [µM] | Vmax (purified protein [2]; [4]) [µmol/min/mg] | kcat (purified protein [2]; [4]) [s⁻¹] | kcat/Km (purified protein [2]; [4]) [M⁻¹ s⁻¹] | Km (purified protein [3]) [µM] | Vmax (purified protein [3]) [µmol/min/mg] | kcat (purified protein [3]) [s⁻¹] | kcat/Km (purified protein [3]) [M⁻¹ s⁻¹] | Km (purified protein [2]; [5]) [µM] | Vmax (purified protein [2]; [5]) [µmol/min/mg] | kcat (purified protein [2]; [5]) [s⁻¹] | kcat/Km (purified protein [2]; [5]) [M⁻¹ s⁻¹]
Brachypodium distachyon cinnamyl alcohol dehydrogenase 5 (BdCAD5), recombinant 6xHis-tagged (enzyme) | 24 | 2 |  |  |  |  |  |  |  |  |  |  |  | 
B1 |  |  | 33.3 ± 3.80 | 9.26 | 8.66 | 260000 | 509.1 ± 134.0 | 36.7 | 34.3 | 67000 |  |  |  | 
B2 |  |  |  |  |  |  | 1.44 ± 0.24 | 7.91 | 10.3 | 7.19e+06 | 3.1 ± 0.44 | 29.5 | 38.6 | 1.29e+07
